Measured values published in article PMC6996649, “Rational Engineered C-Acyltransferase Transforms Sterically Demanding Acyl Donors” (ACS Catalysis, 2019).

Substrate: CC(=O)c1c(O)cc(O)cc1O
Assay: purified protein
Format: biochemical, Pseudomonas protegens
Conditions: disproportionation to DAPG, 100 mM potassium phosphate pH 7.5, 35 °C

B1: PpATaseCH (Pseudomonas protegens Pf-5) (protein)
chain: MCARRVAIVSAAYTPKPGSSRVRQTFKEMIVESAYKALKDAKMHPREIQAVAYGYHGEGISEYGGLGPTISDALGISPAPTFMSTANCTSSSVSFQMGHQMVASGEYDIVLCGGFEKMTDHFNYAEYIGSSTECEYDYFLGISHTDAFALATAEYFQKFGYAGREADVLATFGRQMRIYAQNTPTATRYGQPIPSLEVLKNSEACGSMLAWGEASGCAILVAEHLAHKYTDKPVFVRGCAYTGVSHYFGTRFHNPTLHHPGLPKDVGMAVSANSIACAEIAYKKAGITAKDIDVAQVYDLLGAGLIQMESMGICGKGQAGDFVLEGGIALDGQLPLNTDGGNIGRGHASGCDGILHITELFRQLRGESDNQVKGARIGVSQNLGGYAAHNSVIVLSND
notes: PhlABC multi-subunit acyltransferase from codon-harmonized construct, recombinant in E. coli, purified enzyme; with 2,4-diacetylphloroglucinol biosynthesis acyltransferase subunit PhlA; 2,4-diacetylphloroglucinol biosynthesis acyltransferase subunit PhlB
- Km: 290 ± 40 µM
- Vmax: 4830 µM/min
- kcat: 72 ± 8 s⁻¹
- kcat/Km: 251000 ± 15000 M⁻¹ s⁻¹
